Source: US20210292414A1 (H LUNDBECK A S, published 2021)

B1: Antibody 6003-030 (antibody, human IgG1, V domains shown)
VH: EVQVLESGGGLVQPGGSLRLSCAASGFTFSSYAMSWVRQAPGKGLEWVSTISGRGGNTYYADSVKGRFTISRDNSKNTLYLQMDSLRAEDTAVYYCAIIPSLYWYFDLWGRGTLVTVSS
VL: EIVLTQSPATLSLSPGERATLSCRASQSVSSYLAWYQQKPGQAPRLLIYDASNRATGIPARFSGSGSGTDFTLTISSLEPEDFAVYYCQQRSNWPLTFGGGTKVEIK
notes: Human antibody (HuMab); also called antibody 30; mAb30
B2: Antibody 6003-028 (antibody, human IgG1, V domains shown)
VH: EVQLLESGGGLVQPGGSLRLSCAASGFTFSSYAMSWVRQAPGKGLEWVSTISGRGGSTYYADSVKGRFTISRDNSKNTLYLQMNSLRAEDTAVYYCANLYSNYWYFDLWGRGTLVTVSS
VL: EIVLTQSPATLSLSPGERATLSCRASQSVSSFLAWYQQKPGQAPRLLIYDASNRATGIPARFSGSGSGTDFTLTISSLEPEDFAVYYCQQRSNWPLTFGGGTKVEIK
B3: Antibody 6003-056 (antibody, human IgG1, V domains shown)
VH: EVQVLESGGGLVQPGGSLRLSCVASGFTFSSYAMHWVRQAPGKGLEWVSAISGRGGSTYYADSVKGRFTISRDNSKNTLYLQMNSLRAEDTAVYYCAIIPSLYWYFDLWGRGTLVTVSS
VL: EIVLTQSPATLSLSPGERATLSCRASQSVSSFLAWYQQKPGQAPRLLIYDASNRATGIPARFSGSGSGTDFTLTISSLEPEDFAVYYCQQRSNWPLTFGGGTKVEIK
B4: Antibody 6003-083 (antibody, human IgG1, V domains shown)
VH: EVQLLESGGGLVQPGGSLRLSCAASGFTFSSYAMSWVRQAPGKGLEWVSTISGRGGSTYYADSVKGRFTISRDNSKNTLYLQMNSLRAEDTAVYYCAIVATMYWYFDLWGRGTLVTVSS
VL: EIVLTQSPATLSLSPGERATLSCRASQSVSSYLAWYQQKPGQAPRLLIYDASNRATGIPARFSGSGSGTDFTLTISSLEPEDFAVYYCQQRSNWPITFGQGTRLEIK
B5: Antibody 6003-1286 (antibody, human IgG1, V domains shown)
VH: EVQLLESGGGLVQPGGSLRLSCAASGFTFSSYAMSWVRQAPGKGLEWVSTISGRGGNTYYADSVKGRFTISRDNSKNTLYLQMNSLRAEDAAVYYCANIYSHYWYFDLWGRGTLVTVSS
VL: EIVLTQSPATLSLSPGERATLSCRASQSVNSYLAWYQQKPGQAPRLLIYDASNRATGIPARFSGSGSGTDFTLTISSLEPEDFAVYYCQQRSNWPLTFGGGTKVEIK
B6: Antibody 6003-1277 (antibody, V domains shown)
VH: QVQLVQSGAEVKKPGASVKVSCKTSGYTFTHYGISWVRQAPGQGLEWMGWINTYNGNTKYAQKLQGRVTMTTDTSTSTAYMELRSLRSDDTAVYYCASLGRNFDYWGQGTLVTVSS
VL: not shown
B7: Antibody 6003-381 (antibody, human IgG1, V domains shown)
VH: QVQLVESGGGVVQPGRSLRLSCAASGFTFSNYVMHWVRQAPGKGLEWVAAISYNGNNKYYADSVKGRFTISRDNSKNTLYLQMNSLRAEDTAVSYCAKGLNDAFDIWGQGTMVTVSS
VL: not shown
B8: IgG1-6003-408 (antibody, V domains shown)
VH: EVQLVESGGGLVKPGGSLRLSCAASGFTFSSYSMNWVRQAPGKGLEWVSSISSSSSYIYYADSVKGRFTISRDNAKNSLYLQMNSLRAEDTAVYYCARRRIAAAGTGYGAFDIWGQGTMVTVSS
VL: ARQLTQSPSSLSASVGDRVTITCRASQGITSALAWYQQKPGKVPKLLIYDASSLESGVPSRFSGSGSGTDFTLTISSLQPEDFATYYCQQFNGYPMFSFGQGTKLEII
notes: also called Antibody 6003-408

Columns and labels:
Assay in all cases: BLI (Octet384RED)
[1] = target: T1, Sortilin SORTECDBAP_hB45678 (human/tetraodon chimera)
T1 construct: Shuffle construct: chimeric human/tetraodon Sortilin ECD with BAP tag
T1 chain: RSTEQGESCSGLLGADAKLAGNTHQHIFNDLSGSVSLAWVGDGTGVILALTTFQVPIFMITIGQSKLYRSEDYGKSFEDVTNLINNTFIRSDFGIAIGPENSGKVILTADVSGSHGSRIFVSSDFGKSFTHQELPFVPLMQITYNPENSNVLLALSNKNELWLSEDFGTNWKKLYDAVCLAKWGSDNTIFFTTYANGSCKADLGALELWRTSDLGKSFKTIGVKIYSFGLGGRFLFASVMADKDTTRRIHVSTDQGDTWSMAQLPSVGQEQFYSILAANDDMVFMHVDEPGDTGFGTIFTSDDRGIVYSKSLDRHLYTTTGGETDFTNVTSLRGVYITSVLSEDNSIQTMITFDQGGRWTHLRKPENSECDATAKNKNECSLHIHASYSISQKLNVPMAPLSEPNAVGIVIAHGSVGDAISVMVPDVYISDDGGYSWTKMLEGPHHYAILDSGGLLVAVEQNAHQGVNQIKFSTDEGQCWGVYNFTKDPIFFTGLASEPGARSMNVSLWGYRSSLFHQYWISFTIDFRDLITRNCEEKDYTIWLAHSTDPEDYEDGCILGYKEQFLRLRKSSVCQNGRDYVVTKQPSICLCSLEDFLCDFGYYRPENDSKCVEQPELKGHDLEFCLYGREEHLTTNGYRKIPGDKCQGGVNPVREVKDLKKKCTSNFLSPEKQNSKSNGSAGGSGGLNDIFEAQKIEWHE

hRim = target: T2, hRim
T2 chimeric human/tetraodon Sortilin extracellular region, BAP tag: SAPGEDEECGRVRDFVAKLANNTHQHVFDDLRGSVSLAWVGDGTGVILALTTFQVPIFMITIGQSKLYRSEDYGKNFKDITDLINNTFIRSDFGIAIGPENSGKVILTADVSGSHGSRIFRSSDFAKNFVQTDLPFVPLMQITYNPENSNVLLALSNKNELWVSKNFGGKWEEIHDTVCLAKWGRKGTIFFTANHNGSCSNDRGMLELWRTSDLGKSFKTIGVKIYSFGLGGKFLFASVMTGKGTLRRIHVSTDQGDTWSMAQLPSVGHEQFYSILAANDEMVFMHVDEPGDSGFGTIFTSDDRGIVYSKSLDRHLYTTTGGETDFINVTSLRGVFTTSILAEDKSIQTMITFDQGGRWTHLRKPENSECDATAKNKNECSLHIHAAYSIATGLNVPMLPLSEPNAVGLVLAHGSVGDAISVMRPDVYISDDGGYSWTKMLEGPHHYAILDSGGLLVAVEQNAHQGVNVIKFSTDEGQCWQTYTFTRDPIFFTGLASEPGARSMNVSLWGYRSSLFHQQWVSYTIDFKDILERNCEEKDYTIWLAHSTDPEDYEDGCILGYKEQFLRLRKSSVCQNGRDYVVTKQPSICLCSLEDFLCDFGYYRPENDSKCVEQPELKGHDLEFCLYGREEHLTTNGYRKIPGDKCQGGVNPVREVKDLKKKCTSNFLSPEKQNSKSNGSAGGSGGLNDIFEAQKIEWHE

Sortilin hSORTECDBAP = target: T3, Sortilin hSORTECDBAP (human, UniProt Q99523 78-755)
T3 sequence: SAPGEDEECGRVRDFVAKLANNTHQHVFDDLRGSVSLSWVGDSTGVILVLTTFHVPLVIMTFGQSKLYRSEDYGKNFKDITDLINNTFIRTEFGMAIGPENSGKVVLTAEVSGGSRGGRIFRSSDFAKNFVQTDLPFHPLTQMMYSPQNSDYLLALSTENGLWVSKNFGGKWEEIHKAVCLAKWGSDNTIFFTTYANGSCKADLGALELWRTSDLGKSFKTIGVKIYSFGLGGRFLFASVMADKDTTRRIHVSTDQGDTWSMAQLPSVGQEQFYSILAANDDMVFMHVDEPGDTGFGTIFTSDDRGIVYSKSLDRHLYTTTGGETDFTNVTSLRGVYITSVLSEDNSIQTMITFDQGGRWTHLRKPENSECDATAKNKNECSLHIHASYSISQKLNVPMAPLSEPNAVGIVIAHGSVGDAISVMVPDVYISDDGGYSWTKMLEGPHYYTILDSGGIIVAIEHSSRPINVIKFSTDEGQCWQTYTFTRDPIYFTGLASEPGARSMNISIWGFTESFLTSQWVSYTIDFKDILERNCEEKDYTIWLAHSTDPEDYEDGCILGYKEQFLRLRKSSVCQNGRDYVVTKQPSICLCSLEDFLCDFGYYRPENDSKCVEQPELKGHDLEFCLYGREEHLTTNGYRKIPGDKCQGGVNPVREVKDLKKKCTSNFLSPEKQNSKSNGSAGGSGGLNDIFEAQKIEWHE

Row | Binder | EC50 [1] | EC50 (hRim) | EC50 (Sortilin hSORTECDBAP)
1 | B1 | 0.85 ng/mL | 0.86 ng/mL | 0.89 ng/mL
2 | B2 | 1.96 ng/mL | 2.04 ng/mL | 1.75 ng/mL
3 | B3 | 1.1 ng/mL | 1.24 ng/mL | 1.26 ng/mL
4 | B4 | 0.92 ng/mL | 0.99 ng/mL | 0.77 ng/mL
5 | B5 | 1.02 ng/mL | 1.05 ng/mL | 1.02 ng/mL
6 | B6 | 4.3 ng/mL | 4.34 ng/mL | 3.03 ng/mL
7 | B7 | 2 ng/mL | 2.28 ng/mL | 1.82 ng/mL
8 | B8 | 2.58 ng/mL | 2.78 ng/mL | 1.93 ng/mL
